Drawing on publication PMC9351570, this text covers nucleosome sliding, native gel remodeling assay, kobs; 601 + 80 WT nucleosome for 1 substance.

The test concerns the target nucleosome: recombinant Xenopus laevis histone octamer assembled on 601 DNA with flanking DNA (Xenopus laevis).

As to “mutant INO80 complex purified from yeast lacking Arp5 (from UniProt P53115 1-1489; P40154 1-320; Q12386 1-881)”, the nucleosome sliding, native gel remodeling assay, kobs; 601 + 80 WT nucleosome stood at 0.006 min⁻¹.
